# From patent US20060165686A1 (NOVIMMUNE S A, published 2006)
# T1: human MD-2 accessory protein (human, UniProt Q9Y6Y9 19-160)
# T1 chain: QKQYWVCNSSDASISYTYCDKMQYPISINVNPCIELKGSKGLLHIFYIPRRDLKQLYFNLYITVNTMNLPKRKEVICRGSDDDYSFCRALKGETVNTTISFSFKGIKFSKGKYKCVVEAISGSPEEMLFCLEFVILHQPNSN
# Tests used:
# Assay in all cases: cell-based or functional assay
# [1] = target: human toll-like receptor 4 (TLR4) (human, UniProt O00206 24-839)
# [2] = target: T1, human MD-2 accessory protein
# [3] = target: human toll-like receptor 2 (TLR2) (human, UniProt O60603 21-784)
# human toll-like receptor 2 (TLR2), sequence (O60603 21-784): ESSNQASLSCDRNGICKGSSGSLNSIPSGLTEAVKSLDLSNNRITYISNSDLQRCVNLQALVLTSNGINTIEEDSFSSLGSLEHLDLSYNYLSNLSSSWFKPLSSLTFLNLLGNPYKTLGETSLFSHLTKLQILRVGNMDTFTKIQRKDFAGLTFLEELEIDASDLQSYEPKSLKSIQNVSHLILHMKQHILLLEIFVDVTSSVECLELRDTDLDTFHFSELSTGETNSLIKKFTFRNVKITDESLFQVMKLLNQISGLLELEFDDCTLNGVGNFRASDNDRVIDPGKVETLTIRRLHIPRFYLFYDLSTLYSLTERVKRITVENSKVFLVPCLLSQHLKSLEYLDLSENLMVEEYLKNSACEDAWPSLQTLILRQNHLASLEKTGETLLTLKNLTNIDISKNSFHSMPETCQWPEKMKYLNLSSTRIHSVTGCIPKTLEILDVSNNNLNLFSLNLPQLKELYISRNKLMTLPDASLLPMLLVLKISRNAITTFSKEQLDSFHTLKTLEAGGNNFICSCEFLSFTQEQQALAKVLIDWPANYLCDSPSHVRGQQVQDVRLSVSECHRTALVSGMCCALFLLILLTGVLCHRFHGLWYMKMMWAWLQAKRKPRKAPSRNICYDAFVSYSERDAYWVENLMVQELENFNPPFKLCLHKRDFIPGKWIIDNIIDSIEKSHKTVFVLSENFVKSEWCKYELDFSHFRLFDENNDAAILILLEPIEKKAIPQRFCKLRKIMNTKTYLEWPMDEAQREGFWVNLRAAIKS
# human toll-like receptor 4 (TLR4), sequence (O00206 24-839 limits assumed): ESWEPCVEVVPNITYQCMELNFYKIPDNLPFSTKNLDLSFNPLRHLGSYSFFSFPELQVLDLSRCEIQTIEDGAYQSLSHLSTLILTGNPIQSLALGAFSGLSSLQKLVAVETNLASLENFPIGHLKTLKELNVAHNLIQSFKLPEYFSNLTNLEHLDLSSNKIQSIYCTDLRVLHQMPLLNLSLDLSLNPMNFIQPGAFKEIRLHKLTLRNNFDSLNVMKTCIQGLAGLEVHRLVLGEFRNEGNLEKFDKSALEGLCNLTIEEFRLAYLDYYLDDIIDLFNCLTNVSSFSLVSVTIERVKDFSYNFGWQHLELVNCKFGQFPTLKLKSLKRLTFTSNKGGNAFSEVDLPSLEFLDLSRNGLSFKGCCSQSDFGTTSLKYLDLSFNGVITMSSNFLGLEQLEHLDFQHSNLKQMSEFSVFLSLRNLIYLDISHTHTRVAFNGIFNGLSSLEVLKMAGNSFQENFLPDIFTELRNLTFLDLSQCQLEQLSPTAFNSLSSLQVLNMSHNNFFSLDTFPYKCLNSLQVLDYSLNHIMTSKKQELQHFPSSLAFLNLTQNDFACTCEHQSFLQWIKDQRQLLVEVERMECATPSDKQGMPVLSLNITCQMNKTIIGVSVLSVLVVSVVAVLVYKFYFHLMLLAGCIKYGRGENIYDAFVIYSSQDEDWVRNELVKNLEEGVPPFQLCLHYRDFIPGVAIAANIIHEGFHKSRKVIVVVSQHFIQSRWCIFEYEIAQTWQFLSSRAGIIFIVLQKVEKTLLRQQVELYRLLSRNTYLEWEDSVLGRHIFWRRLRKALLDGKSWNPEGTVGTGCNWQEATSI
binder,measurement,setting,value
"α-human TLR4 MAb 15C1 (murine 15C1 monoclonal antibody) (antibody, mouse IgG1, V domains shown) VH: DVQLQESGPDLIQPSQSLSLTCTVTGYSITGGYSWHWIRQFPGNKLEWMGYIHYSGYTDFNPSLKTRISITRDTSKNQFFLQLNSVTTEDTATYYCARKDPSDGFPYWGQGTLVTVSA VL: DIVMTQSPATLSVTPGDRVSLSCRASQSISDHLHWYQQKSHESPRLLIKYASHAISGIPSRFSGSGSGTDFTLSIKSVEPEDIGVYYCQNGHSFPLTFGAGTKLELK",IL-6 production induced by pseudomonas LPS in human whole blood,[1],~50%
"α-human MD-2 MAb 18H10 (murine 18H10 monoclonal antibody) (antibody, mouse IgG2b, V domains shown) VH: QVQLQQSGADLVRPGALVKLSCTASGFNIKDSYIHWVKKRPEWGLEWIGWTDPENVNSIYDPRFQGKASITADTSSNTAFLQLTSLTSEDTAVYYCARGYNGVYYAMDYWGQGTSVTVSS VL: QIVLTQSPSIMSASLGEEITLTCSASSSVIYMHWYQQKSGTSPKLLIYRTYNLASGVPSRFSGSGSGTFYSLTISSVEAEDAADYYCHQWSSFPYTFGGGTKLEIKR",IL-6 production induced by pseudomonas LPS in human whole blood,[2],~50%
"α-human TLR2 MAb T2.5 (antibody, V domains shown) VH: QVQLQQSGPELVNPGASVKLSCKASGFTFTTYGINWVKQGPGQGLEWIGWIYPRDGSTNFNENFKDKAALTVDTSSSTAYMELHSLTSEDSAVYFCARLTGGTFLDWWGQGTTLTVSS VL: DIVLTQSPASLAVSLGQRATISCRASESVEYYGTSLMQWYQQKPGQPPKLLIFGASNVESGVPVRFSGSGSGTDFSLNIHPVEEDDIVMYFCQQSRKLPWTFGGGTKLEIKR",IL-6 production induced by pseudomonas LPS in human whole blood,[3],~50%
